Data published in US20170101469A1 (FOURTH MILITARY MEDICAL UNIVERSITY, published 2017).

T1: human CD147 antigen (human, UniProt P35613-2 22-205, limits assumed)
T1 sequence (looked up): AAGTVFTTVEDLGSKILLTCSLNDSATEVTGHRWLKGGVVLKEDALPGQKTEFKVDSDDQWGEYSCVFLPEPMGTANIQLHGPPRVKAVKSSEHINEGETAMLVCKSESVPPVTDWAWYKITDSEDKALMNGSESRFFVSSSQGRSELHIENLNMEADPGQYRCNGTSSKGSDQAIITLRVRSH


Assays:
human CD147 antigen [1] = target: T1, human CD147 antigen; test: SPR (ProteOn XPR36), antibody immobilised on a GLC chip, human CD147 antigen injected at 0.375-6 nM, 25 C
Description: (§1) The affinity (KD) for the binding of human CD147 antigen to selected antibodies was measured by Surface plasmon resonance analysis on a multi-SPR array system (ProteOn XPR36™, Bio-Rad). Data analysis was performed using ProteOn Manager Software (Bio-Rad). Briefly, the running buffer PBST (0.005% Tween-20 in PBS) was used continuously throughout the entire experiment at 25° C. A ProteOn GLC sensor chips (Bio-Rad) was activated for 6 min using a mixture of 0.2M EDC and 5 mM sulfo-NHS at a flow rate of 20 μl/min, followed by diluting 260 μl of 10 μg/mL each antibody in 10 mM acetate buffer at pH 4.5. The surface of the sensor chip was then deactivated with 150 μl of IM Ethanolamine Hydrochloride (pH 8.5). The sensor surface was regenerated through a wash (about 3 min) with HBS-EP buffer until the baseline was restored. A reference cell without antibodies was prepared by a similar procedure. 5 different concentrations of human CD147 antigen (0.375, 0.75, 1.5, 3, and 6 nM) were injected in channels 1 to 5, respectively, at flow rate of 50 μl/min, 3 min. A reference channel was prepared in the same manner without injection of CD147 antigen. The SPR binding responses were collected and analyzed using the ProteOn data manager program.
Two sets of experiments were performed, in the first set of experiments, the human CD147 binding affinity of HAb18 and Metuzumab were compared (data shown in FIG. 3A), in the second set of experiments the human CD147 binding affinity of cHAb18 and Metuzumab were compared (data shown in FIG. 3B).

human CD147 antigen [2] = target: T1, human CD147 antigen; test: SPR, ProteOn XPR36, antibody amine-coupled to GLC chip, human CD147 0.375-6 nM as analyte, 25 C; first set of experiments (FIG. 3A)
Description: as §1, with “program. […]” for “program.”

human CD147 antigen [3] = target: T1, human CD147 antigen; test: SPR, ProteOn XPR36, antibody amine-coupled to GLC chip, human CD147 0.375-6 nM as analyte, 25 C; second set of experiments (FIG. 3B)
Description: as §1, with “program. […]” for “program.”

Row | Kd (human CD147 antigen [1]) | koff (human CD147 antigen [1]) | kon (human CD147 antigen [1]) | Kd (human CD147 antigen [2]) | Kd (human CD147 antigen [3]) | Binder
1 | 0.362 nM | 0.000417 s⁻¹ | 1.15e+06 M⁻¹ s⁻¹ | 0.321 nM | 0.429 nM | Metuzumab (antibody, human IgG1, kappa, V domains shown, N-linked Mannose-5 oligosaccharide in the Fc region, no fucose or xylose residue detected (site not numbered in the filing), Human-mouse chimeric IgG1 made in acetyl-glucosamine transferase deficient CHO K1 MAGE1.5 cells; only the glycoform differs; Residues 1-16 are left out on that basis; also called HcHAb18; glycosylation modified chimeric antibody Metuzumab) VH: EVKLEESGGGLVQPGGSMKLSCVASGFTFSDAWMDWVRQSPEKGLEWVAEIRSKANNHAPYYTESVKGRFTISRDDSKSIIYLQMNNLRAEDTGIYYCTRDSTATHWGQGTLVTVSA VL: SIVMTQTPTFLVVSAGDRVTITCKASQSVINDVAWYQQKPGQSPKLLIFYASNRNTGVPDRFTGSGYGTDFTFTISTVQAEDLAVYFCQQDYSPPFTFGSGTKLEIKR
2 | – | – | – | – | 0.475 nM | cHAb18 (antibody, human IgG1, kappa, V domains shown, N-linked fucosylated oligosaccharides, G0F, G1F and G1F' glycoforms (site not numbered in the filing), Human-mouse chimeric IgG1 made in CHO K1 cells; also called chimeric antibody cHAb18; cHAb18 mAb) VH: EVKLEESGGGLVQPGGSMKLSCVASGFTFSDAWMDWVRQSPEKGLEWVAEIRSKANNHAPYYTESVKGRFTISRDDSKSIIYLQMNNLRAEDTGIYYCTRDSTATHWGQGTLVTVSA VL: SIVMTQTPTFLVVSAGDRVTITCKASQSVINDVAWYQQKPGQSPKLLIFYASNRNTGVPDRFTGSGYGTDFTFTISTVQAEDLAVYFCQQDYSPPFTFGSGTKLEIKR
3 | 0.321 nM | 0.000351 s⁻¹ | 1.09e+06 M⁻¹ s⁻¹ | 0.362 nM | – | HAb18 (antibody, V domains shown, Murine monoclonal antibody from hybridoma CGMCC NO; 0426; The variable domains are tied to HAb18 through cHAb18, whose variable domains are 'derived from HAb18'; also called original mouse antibody HAb18; anti-CD147 murine monoclonal antibody HAb18) VH: EVKLEESGGGLVQPGGSMKLSCVASGFTFSDAWMDWVRQSPEKGLEWVAEIRSKANNHAPYYTESVKGRFTISRDDSKSIIYLQMNNLRAEDTGIYYCTRDSTATHWGQGT VL: SIVMTQTPTFLVVSAGDRVTITCKASQSVINDVAWYQQKPGQSPKLLIFYASNRNTGVPDRFTGSGYGTDFTFTISTVQAEDLAVYFCQQDYSPPFTFGSGTKLEIKR
